Test results as given in patent publication US20120045393A1 (priority 2009, published 2012).
“Also recorded” adds a separate entry of the source. Like-named read-outs stand apart in the source and are kept apart here. Values belong to the molecule of their own block, whether it stands above or below them. Non-standard residues stand in square brackets, D forms with d. *: point of attachment. Bpa = N[C@@H](Cc1ccc(C(=O)c2ccccc2)cc1)C(=O)O; pGlu = O=C1CC[C@@H](C(=O)O)N1; DO3A10CM = not defined here; Hpgly = not defined here; Mogly = not defined here; azaGly = NNC(=O)O; Sar = CNCC(=O)O; 125I = [125I]*

Assays:
[1] = plasma (blood) and urine samples collected post injection in normal mice; settings: up to 60 min post injection
liver homogenate = settings: female Tac:NCr:Foxn1^nu/nu mice, 37° C., up to 60 min
kidney homogenate = settings: female Tac:NCr:Foxn1^nu/nu mice, 37° C., up to 60 min
[2] = kidney homogenate stock solution; settings: female Tac:NCr:Foxn1^nu/nu mice, 37° C., up to 60 min
[3] = system: LHRH-II-receptor-positive but LHRH-1-receptor-negative ovarian SK-OV-3 cell lines; settings: cited from earlier work
[4] = molecular target: LHRH receptor (LHRH binding sites) on PC-3 human prostate cancer cells (human); experiment: internalization/efflux study, cell-associated radioactivity, PC-3 cells, 230 fmoles added/well
[5] = molecular target: LHRH receptor (LHRH binding sites) on EFO-27 human ovarian cancer cells (human); experiment: direct binding of 177Lu-labeled peptide to EFO-27 cells, single concentration
[6] = molecular target: LHRH receptor (LHRH binding sites) on PC-3 human prostate cancer cells (human); experiment: internalization/efflux study, cell-associated radioactivity, PC-3 cells
[7] = molecular target: LHRH receptor (LHRH binding sites) on EFO-27 human ovarian cancer cells (human); experiment: internalization/efflux study, cell-associated radioactivity, EFO-27 cells, 212 fmoles added/well
[8] = molecular target: LHRH receptor (LHRH binding sites) on EFO-27 human ovarian cancer cells (human); experiment: internalization/efflux study, cell-associated radioactivity, EFO-27 cells
[9] = molecular target: LHRH receptor (LHRH binding sites) on EFO-27 human ovarian cancer cells (human); experiment: internalization/efflux study, cell-associated radioactivity, EFO-27 cells, 78 fmoles added/well
[10] = molecular target: LHRH receptor (LHRH binding sites) on EFO-27 human ovarian cancer cells (human); experiment: internalization/efflux study, cell-associated radioactivity, EFO-27 cells, 203 fmoles added/well
[11] = molecular target: LHRH receptor (LHRH binding sites) on EFO-27 human ovarian cancer cells (human); experiment: internalization/efflux study, cell-associated radioactivity, EFO-27 cells, 292 fmoles added/well
[12] = molecular target: LHRH receptor (LHRH binding sites) on EFO-27 human ovarian cancer cells (human); experiment: saturation binding to EFO-27 cells, single-site fit
[13] = molecular target: LHRH receptor (LHRH binding sites) on EFO-27 human ovarian cancer cells (human); experiment: internalization/efflux study, cell-associated radioactivity, EFO-27 cells, 205 fmoles added/well
[14] = molecular target: T1, LHRH binding sites on EFO-27 human ovarian cancer cells (human); experiment: competition with [125I-Tyr8]BRU-2477 on EFO-27 cells
T1 chain: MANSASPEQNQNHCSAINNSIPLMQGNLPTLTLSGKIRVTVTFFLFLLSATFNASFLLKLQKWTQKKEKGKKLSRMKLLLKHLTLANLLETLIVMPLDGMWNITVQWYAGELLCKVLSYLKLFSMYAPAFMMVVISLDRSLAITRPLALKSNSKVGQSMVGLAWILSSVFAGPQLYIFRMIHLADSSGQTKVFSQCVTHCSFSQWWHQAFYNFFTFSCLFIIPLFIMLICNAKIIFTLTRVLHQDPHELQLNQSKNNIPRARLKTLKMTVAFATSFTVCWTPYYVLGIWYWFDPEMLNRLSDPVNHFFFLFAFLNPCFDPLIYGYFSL

[15] = molecular target: T1, LHRH binding sites (presumed LHRH …); experiment: as above
[16] = molecular target: T1, LHRH binding sites (presumed LHRH …); experiment: as above
[17] = molecular target: T1, LHRH binding sites (presumed LHRH …); experiment: as above
[18] = molecular target: LHRH receptor (LHRH binding sites) on EFO-27 human ovarian cancer cells (human); experiment: internalization/efflux study, cell-associated radioactivity, EFO-27 cells, 156 fmoles added/well

cleaved bond [1]: Bpa48-Pro9, major
fragment found [1]: BRU-3046; BRU-2813[1-7]-OH
cleaved bond (liver homogenate): Bpa48-Pro9, major
cleaved bond (kidney homogenate): Bpa48-Pro9, major
Molecule: Lu-DOTA-Dnal2-Arg-Trp-Ser-His-Darg-Trp-Bpa4-Pro-azaGly-NH2
cleaved bond [2]: Bpa48-Pro9, major; also recorded: Trp7-Bpa48, major

Molecule: LHRH-II: native Chicken II LHRH: pGlu-His-Trp-Ser-His-Gly-Trp-Tyr-Pro-Gly-NH2 (EHWSHGWYPG; HELM PEPTIDE1{[Glp].H.W.S.H.G.W.Y.P.G.[am]}$$$$V2.0; SMILES NC(=O)CNC(=O)[C@@H]1CCCN1C(=O)[C@H](Cc1ccc(O)cc1)NC(=O)[C@H](Cc1c[nH]c2ccccc12)NC(=O)CNC(=O)[C@H](Cc1c[nH]cn1)NC(=O)[C@H](CO)NC(=O)[C@H](Cc1c[nH]c2ccccc12)NC(=O)[C@H](Cc1c[nH]cn1)NC(=O)[C@@H]1CCC(=O)N1)
antiproliferative effect [3]: showed antiproliferative effect

Bound fmoles [4]: 44.3 fmol
% Bound [5]: 18.8%
Bound % [6]: 19.3%
Bound fmoles [7]: 40.5 fmol
Bound % [8]: 19.1%
B1: ^177Lu-BRU-2813 (peptide)
peptide: XRWSHXWXPX
modifications: 177Lu held by the N-terminal DO3A10CM: 177Lu-DO3A10CM-Dnal2-Arg-Trp-Ser-His-Darg-Trp-Bpa4-Pro-azaGly-NH2

Bound fmoles [9]: 0.93 fmol
Bound % [8]: 1.2%
B2: ^177Lu-BRU-2796 (peptide)
peptide: DO3A10CM-G[Mogly]HWSH[dR]W[Bpa]P[azaGly]-NH2
modifications: reading uncertain; also: 177Lu complexed by DO3A10CM, printed as 177Lu-DO3A10CM-Gly-Mogly-His-Trp-Ser-His-Darg-Trp-Bpa4-Pro-azaGly-NH2

Bound fmoles [10]: 4.1 fmol
% Bound [5]: 4.64%
Bound % [8]: 2.02%
B3: ^177Lu-BRU-2797 (peptide)
peptide: DO3A10CM-G[Hpgly]HWSH[dR]W[Bpa]P[azaGly]-NH2
modifications: reading uncertain; also: 177Lu complexed by DO3A10CM, printed as 177Lu-DO3A10CM-Gly-Hpgly-His-Trp-Ser-His-Darg-Trp-Bpa4-Pro-azaGly-NH2

Bound fmoles [11]: 68.8 fmol
% Bound [5]: 23.5%
Bound % [8]: 23.6%
B4: ^177Lu-BRU-2968 (peptide)
peptide: XRWSHXWXP
modifications: 177Lu held by the N-terminal DO3A10CM: 177Lu-DO3A10CM-Dnal2-Arg-Trp-Ser-His-Darg-Trp-Bpa4-Pro-Da15o3pt

Kd [12]: 920 nM
Max. binding (Bmax) (pmoles/10^6 cells) [12]: 183
Receptors/cell (receptors/cell) [12]: 1.1e+08
% Bound [5]: 13.2%
Bound fmoles [13]: 25 fmol
Bound % [8]: 12.2%
B5: ^177Lu-BRU-2666 (peptide)
peptide: XHWSHXWXPX
modifications: 177Lu held by the N-terminal DO3A10CM: 177Lu-DO3A10CM-Dnal2-His-Trp-Ser-His-Darg-Trp-Bpa4-Pro-azaGly-NH2

EC50 [14]: 15900 nM
EC50 [15]: 15900 nM
B6: BRU-3046 (peptide)
peptide: XRWSHXW
modifications: DO3A10CM on N-terminus; AA1 Dnal2; AA6 Darg; AA8-AA10 absent; C-terminal free acid

EC50 [16]: 2670 nM
EC50 [17]: 2670 nM
Molecule: DO3A10CM-[Sar]HWSH[dR]WWP[azaGly]-NH2 (reading uncertain, AA8 Trp) [BRU-2724]

Bound fmoles [18]: 1.87 fmol
Kd [12]: 1290 nM
Max. binding (Bmax) (pmoles/10^6 cells) [12]: 141
Receptors/cell (receptors/cell) [12]: 8.5e+07
Bound % [8]: 1.2%
Molecule: [pGlu]HWSH[dR]WY(125I)P[azaGly]-NH2 [[Darg^6, ^125I-Tyr^8, azaGly^10]-LHRH-II]
